Square brackets hold non-standard residues; d marks the D form. Ends that are not written are not given here. * marks the point of attachment. Hexanoyl = CCCCCC(=O)*; Aib = CC(C)(N)C(=O)O
Columns and labels:
[1] = biological target: T1, human VPAC2 (Homo sapiens, UniProt P41587); experiment: Filter binding assay, membranes from stable VPAC2 cell line, 125I-labeled VIP tracer; settings: read-out: Human receptor binding (IC50; nM) VPAC2
T1 construct: expressed in transfected cells
T1 sequence (P41587 24-438): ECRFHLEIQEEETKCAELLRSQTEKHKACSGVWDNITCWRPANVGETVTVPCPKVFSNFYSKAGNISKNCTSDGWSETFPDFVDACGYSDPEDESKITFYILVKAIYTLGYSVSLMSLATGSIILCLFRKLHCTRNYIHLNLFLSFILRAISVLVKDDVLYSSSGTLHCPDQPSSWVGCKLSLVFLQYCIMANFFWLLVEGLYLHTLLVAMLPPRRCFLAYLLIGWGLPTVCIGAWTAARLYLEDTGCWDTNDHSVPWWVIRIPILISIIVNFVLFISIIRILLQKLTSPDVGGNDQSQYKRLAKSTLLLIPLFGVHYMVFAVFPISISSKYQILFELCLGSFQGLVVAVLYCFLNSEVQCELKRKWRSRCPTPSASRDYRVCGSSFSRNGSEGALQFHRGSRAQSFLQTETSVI
Protocol: (§1) For this assay, the solutions and equipment include:
(§2) Presoak solution: 0.5% Polyethyleneamine in Aqua dest.
(§3) Buffer for flushing filter plates: 25 mM HEPES pH 7.4
(§4) Blocking buffer: 25 mM HEPES pH 7.4; 0.2% protease free BSA
(§5) Assay buffer: 25 mM HEPES pH 7.4; 0.5% protease free BSA
(§6) Dilution and assay plate: PS-Microplate, U form
(§7) Filtration Plate Multiscreen FB Opaque Plate; […] Type B Glasfiber filter
(§8) In order to prepare the filter plates, the presoak solution is aspirated by vacuum filtration. The plates are flushed twice with 200 μL flush buffer. 200 μL blocking buffer is added to the filter plate. The filter plate is then incubated with 200 μL presoak solution for 1 hour at room temperature.
(§9) The assay plate is filled with […] (2.5 μg) suspended in assay buffer, 25 μL compound (agonist) in assay buffer, and 25 μL tracer (about 40000 cpm) in assay buffer. The filled plate is incubated for 1 hour with shaking.
(§10) The transfer from assay plate to filter plate is conducted. The blocking buffer is aspirated by vacuum filtration and washed two times with flush buffer. 90 μL is transferred from the assay plate to the filter plate. The 90 μL transferred from assay plate is aspirated and washed three times with 200 μL flush buffer. The plastic support is removed. It is dried for 1 hour at 60° C. 30 μL Microscint is added. The count is performed.
(§11) Values reported are single results or the mean of two or more independent runs.

[2] = Rat serum stability at 37 C, remaining active peptide estimated by EC50,4C/EC50,37C in CHO-VPAC2 cAMP assay; settings: after 72 h in rat serum at 37 C; values >100% may represent release of intact peptide from the PEG conjugate
Protocol: The rat serum is stored at 4° C. until use and is used within two weeks.
On Day 0, two 100 μL aliquots of 10 μM peptide in rat serum are prepared by adding 10 μL peptide stock to 90 μL rat serum for each aliquot. 250 kIU aprotinin/mL is added to one of these aliquots. The aliquot is stored with aprotinin at 4° C. The aliquot is stored without aprotinin at 37° C. The aliquots are incubated for […].
On Day 1, after incubation of the aliquots prepared on day 0 for 24 hours, an incubation buffer containing PBS+1.3 mM CaCl2, 1.2 mM MgCl2, 2 mM glucose, and 0.25 mM IBMX is prepared. A plate with 11 serial 5× dilutions of peptide for the 4° C. and 37° C. aliquot is prepared for each peptide studied. […] The plate(s) are washed with cells twice in incubation buffer. The plates are allowed to hold 50 μL incubation media per well for 15 minutes. 50 μL solution per well is transferred to the cells from the plate prepared with 11 serial 5× dilutions of peptide for the 4° C. and 37° C. aliquot for each peptide studied, using the maximal concentrations that are indicated by the primary screen, in duplicate. This step dilutes the peptide concentration by a factor of two. The cells are incubated at room temperature for 30 minutes. The supernatant is removed. 40 μL/well of the DiscoveRx antibody/extraction buffer is added. The cells are incubated on the shaker (300 rpm) for 1 hour. Normal procedure with the DiscoveRx kit is followed. cAMP standards are included in column 12. EC50 values are determined from the cAMP assay data.

[3] = biological target: T2, human PAC1 (Homo sapiens, UniProt P41586); experiment: Filter binding assay, membranes from cells transiently transfected with human PAC1, 125I-labeled PACAP-27 tracer; settings: read-out: Human receptor binding (IC50; nM) PAC1
T2 construct: expressed in transfected cells
T2 sequence (P41586 21-468): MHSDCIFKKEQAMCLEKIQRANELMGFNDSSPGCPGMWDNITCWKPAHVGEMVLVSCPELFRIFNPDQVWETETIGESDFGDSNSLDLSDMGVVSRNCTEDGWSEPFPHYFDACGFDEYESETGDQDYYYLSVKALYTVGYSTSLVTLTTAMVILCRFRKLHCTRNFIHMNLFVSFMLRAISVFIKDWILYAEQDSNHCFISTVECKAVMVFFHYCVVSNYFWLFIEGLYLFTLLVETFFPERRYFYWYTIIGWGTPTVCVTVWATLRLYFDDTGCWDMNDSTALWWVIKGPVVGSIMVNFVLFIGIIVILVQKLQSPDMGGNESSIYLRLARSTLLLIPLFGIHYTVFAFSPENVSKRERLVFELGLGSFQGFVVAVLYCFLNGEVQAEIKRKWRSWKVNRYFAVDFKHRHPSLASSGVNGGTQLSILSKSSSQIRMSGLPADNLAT
Protocol: as §1, §2, §3, §4, §5, §6, §7, §8, §9, §10, §11

[4] = biological target: T1, human VPAC2; experiment: Alpha screen in vitro potency: human VPAC2-R mediated cAMP generation; format: cell-based; settings: single results or mean of two or more independent runs
[5] = biological target: T3, human VPAC1 (Homo sapiens, UniProt P32241); experiment: Filter binding assay, membranes from cells transiently transfected with human VPAC1, 125I-labeled VIP tracer; settings: read-out: Human receptor binding (IC50; nM) VPAC1
T3 construct: expressed in transfected cells
T3 sequence (P32241 31-457): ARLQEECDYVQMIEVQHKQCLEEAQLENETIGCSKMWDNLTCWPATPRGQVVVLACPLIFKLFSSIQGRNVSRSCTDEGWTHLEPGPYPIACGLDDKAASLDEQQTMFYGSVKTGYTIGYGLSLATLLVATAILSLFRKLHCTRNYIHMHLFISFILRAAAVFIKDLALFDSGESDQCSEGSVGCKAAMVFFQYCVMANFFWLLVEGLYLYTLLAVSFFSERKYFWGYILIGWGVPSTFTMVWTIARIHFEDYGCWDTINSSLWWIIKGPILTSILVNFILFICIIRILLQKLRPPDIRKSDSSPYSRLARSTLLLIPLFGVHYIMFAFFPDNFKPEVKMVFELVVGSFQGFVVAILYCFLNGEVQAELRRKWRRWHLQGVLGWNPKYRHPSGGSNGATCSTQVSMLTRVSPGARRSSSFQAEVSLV
Protocol: as §1, §2, §3, §4, §5, §6, §7, §8, §9, §10, §11

[6] = biological target: T4, rat VPAC2 receptor (Rattus norvegicus, UniProt P35000); experiment: Rat VPAC2 in vitro potency (cAMP generation, DiscoveRx) in transiently transfected CHO-PO cells; format: cell-based; settings: CHO-PO cells transiently transfected with rat VPAC2; read-out: rVPAC2 in vitro potency (cAMP generation) EC50
T4 construct: expressed in transfected cells; host or cells: CHO-PO cells, transient
T4 sequence (P35000 23-437): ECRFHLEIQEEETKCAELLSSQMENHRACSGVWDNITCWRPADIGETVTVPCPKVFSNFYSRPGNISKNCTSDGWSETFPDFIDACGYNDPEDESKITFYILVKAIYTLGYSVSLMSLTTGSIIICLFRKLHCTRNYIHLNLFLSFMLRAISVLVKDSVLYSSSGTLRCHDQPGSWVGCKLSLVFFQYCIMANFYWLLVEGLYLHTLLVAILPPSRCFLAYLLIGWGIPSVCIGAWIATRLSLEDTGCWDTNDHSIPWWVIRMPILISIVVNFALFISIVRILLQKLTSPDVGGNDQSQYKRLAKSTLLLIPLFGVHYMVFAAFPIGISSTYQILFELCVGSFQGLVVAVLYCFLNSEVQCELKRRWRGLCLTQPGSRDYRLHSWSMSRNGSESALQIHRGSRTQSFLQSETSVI
Protocol: (§12) Rat receptor selectivity is estimated by comparing functional potency (cAMP generation) in CHO-PO cells transiently expressing rat VPAC1 or rat VPAC2 receptors. CHO-PO cells transiently expressing rat VPAC1 or VPAC2, are seeded with 10,000 cells/well three days before the assay. The cells are kept in 200 μL culture medium. […] The stimuli are present for 30 minutes. The assay buffer is then gently removed.

[7] = biological target: T5, rat VPAC1 receptor (Rattus norvegicus, UniProt P30083); experiment: Rat VPAC1 in vitro potency (cAMP generation, DiscoveRx) in transiently transfected CHO-PO cells; format: cell-based; settings: CHO-PO cells transiently transfected with rat VPAC1; read-out: rVPAC1 in vitro potency (cAMP generation) EC50
T5 construct: expressed in transfected cells; host or cells: CHO-PO cells, transient
T5 sequence (P30083 31-459): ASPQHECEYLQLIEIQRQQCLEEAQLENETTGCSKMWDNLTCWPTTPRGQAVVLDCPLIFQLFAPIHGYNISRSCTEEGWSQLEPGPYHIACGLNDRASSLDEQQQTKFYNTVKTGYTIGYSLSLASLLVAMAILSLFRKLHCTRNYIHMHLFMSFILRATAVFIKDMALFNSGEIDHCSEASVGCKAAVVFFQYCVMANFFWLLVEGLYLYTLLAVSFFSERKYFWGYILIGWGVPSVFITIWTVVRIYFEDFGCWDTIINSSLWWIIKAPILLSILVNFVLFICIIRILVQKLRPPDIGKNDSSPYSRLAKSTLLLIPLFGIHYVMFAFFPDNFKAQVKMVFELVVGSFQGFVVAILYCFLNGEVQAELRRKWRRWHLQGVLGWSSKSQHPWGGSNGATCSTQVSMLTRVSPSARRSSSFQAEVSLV
Protocol: as §12

[8] = Pharmacokinetic profiles of PEGylated peptides, plasma peptide by RIA; format: in vivo, Fisher 344 rats
Protocol: Pharmacokinetic profiles of PEGylated peptides. Healthy Fisher 344 rats (3 animals per group) are injected with 100 μg compound/kg (compound amount based on peptide content and dissolved in PBS buffer). […] PK parameters are then calculated using a model-independent method (WinNonlin Pro, Pharsight Corp., Mountain View, Calif., USA).

[9] = Fisher 344 rats, 100 μg compound/kg, plasma RIA, mean N = 3

Substance | IC50 [1] | IC50 [3] | EC50 [4] | IC50 [5] | EC50 [6] | also measured
C6-HSDAVFTDNYTRLRAibQVAAKAibYLQSIKNKRYGGPSSGAPPPC(PEG40K)-NH2 (Hexanoyl-HSDAVFTDNYTRLR[Aib]QVAAK[Aib]YLQSIKNKRYGGPSSGAPPPC(PEG 40 kDa)-NH2) [Agonist P286] | 0.46 nM | > 25000 nM | 6.65 nM | > 3000 nM |  | Estimated 72 h stability (%) [2]: 60.5%
P217 (Hexanoyl-HSDAVFTDNYTRLRK(PEG 20 kDa)QVAAK(PEG 20 kDa)RYLQSIRNGGPSSGAPPPS) [Agonist P217] |  |  | > 3000 nM |  |  | 
P300 (Hexanoyl-HSDAVFTDNYTRLR[Aib]QVAA[Aib]KYLQSIKNKRYGGPSSGAPPPC(PEG 40 kDa)-NH2) [Agonist P300] | 1.76 nM | > 25000 nM | 6.62 nM | > 3000 nM | 5.8 nM | 
C6-HSDAVFTDNYThRLRAibQVAAAibKYLQSIhRNhRhRYGGPSSGAPPPC(PEG40K)-NH2 (HSDAVFTDNYTXLRXQVAAXKYLQSIXNXXYGGPSSGAPPPC; non-natural residues) [Agonist P340] | 4.76 nM | > 25000 nM | 7.74 nM | > 3000 nM | 4 nM | EC50 [7]: 116 nM; AUC0-last [8, 9]: 515 ng·h/mL; Cmax [8, 9]: 44 ng/mL; Tmax [8, 9]: 6 h
P300 (Hexanoyl-HSDAVFTDNYTRLR[Aib]QVAA[Aib]KYLQSIKNKRYGGPSSGAPPPC(PEG 40 kDa)-NH2) [Compound P300] |  |  |  |  |  | Cl/F ([8]; rat, in vivo): 1.2 mL/min/kg; Tmax ([8]; rat, in vivo): 10 h; T½ ([8]; rat, in vivo): 15 h; Vd/F ([8]; rat, in vivo): 1.557 L/kg
P245 (HSDAVFTDNYTRLRKQVAARRYLQSIRNGGPSSGAPPPS; not fully specified (residue 15, N-terminus)) [Agonist P245] | 921 nM |  | 450 nM | > 25000 nM |  | 

From patent publication US20080146500A1, “Selective Vpac2 Receptor Peptide Agonists” (priority 2004, published 2008)
